Results on two substances are retold here after paper PMC8674358.

Where “and” joins values, the source holds several entries; their conditions need not be identical. Equal entries are not always repeated.

For assay [1], the target named is IRE1-KR-0P: human IRE1α kinase-endoribonuclease module (residues G547-L977), unphosphorylated (human) (UniProt O75460). Description: cross-linking; 1 μg IRE1-KR (~0.8 μM) or various concentrations in RNA cleavage buffer (20 mM HEPES pH 7.5, 50 mM K acetate, 1 mM Mg acetate, 0.05% Triton X-100), 250 μM DSS, 1 h on ice; SDS-PAGE and IRE1α immunoblot; also with CRUK-3 (5 µM), which augmented KR-0P dimerization and oligomerization.

For assay [2], the target named is IRE1-KR-3P: human IRE1α kinase-endoribonuclease module (residues G547-L977), fully phosphorylated (human) (UniProt O75460). The description is as above.

As to “IRE1-KR-0P: human IRE1α kinase-endoribonuclease module (residues G547-L977), unphosphorylated (from UniProt O75460 547-977) (domain or fragment)”, the stoichiometry N in assay [1] is 2.

Turning to “IRE1-KR-3P: human IRE1α kinase-endoribonuclease module (residues G547-L977), fully phosphorylated (from UniProt O75460 547-977) (domain or fragment)”, in assay [2], the stoichiometry N was 2 and 4 and 6.
